Data taken from PMC3298758.
Read-outs that look alike come from different tables or passages of the source. Ends that are not written are not given here.

Key:
Factor X [1] = experiment: SPR
[2] = target: Factor VIII light chain (A3C1C2 domains); experiment: ELISA
Factor X [3] = experiment: cross-linking
Factor X [4] = experiment: ELISA
Factor X [5] = experiment: cross-linking; remark: listed apart in the source
Factor X [6] = experiment: SPR; remark: listed apart in the source
Factor X [7] = experiment: ELISA; remark: listed apart in the source

Molecule	Kd (Factor X [1])	further results
A3C1C2 subunit from FVIII variant Leu2013Ala (from UniProt P00451 1709-2351) (domain or fragment)	63.9 nM	–
A3C1C2 subunit from FVIII variant Leu2015Ala (from UniProt P00451 1709-2351) (domain or fragment)	45.1 nM	–
A3C1C2 subunit from FVIII variant Val2016Ala (from UniProt P00451 1709-2351) (domain or fragment)	55.7 nM	–
A3C1C2 subunit from FVIII variant Thr2012Ala/Leu2013Ala/Phe2014Ala (from UniProt P00451 1709-2351) (domain or fragment)	239 nM	–
A3C1C2 subunit from FVIII variant Thr2012Ala (from UniProt P00451 1709-2351) (domain or fragment)	85.8 nM	–
active site-modified activated protein C (DEGR-APC) (enzyme)	–	Ki [2]: 82.7 nM
A3C1C2 subunit from FVIII variant Phe2014Ala (from UniProt P00451 1709-2351) (domain or fragment)	104 nM	–
A3C1C2 subunit from FVIII variant Thr2012Ala/Phe2014Ala (from UniProt P00451 1709-2351) (domain or fragment)	193 nM	–
A3C1C2 subunit from FVIII variant Met2010Ala (from UniProt P00451 1709-2351) (domain or fragment)	59.5 nM	–
A3C1C2 subunit from recombinant wild type FVIII (from UniProt P00451 1709-2351) (domain or fragment)	57 nM	–
Factor VIII light chain (A3C1C2 domains) (domain or fragment)	165 nM	stoichiometry N (Factor X [3]): 1; Kd (Factor X [4]): 370 nM
Factor X (natural protein)	–	Kd [2]: 89.9 nM; Ki [2]: 154 nM
A3C1C2 subunit from FVIII variant Ser2011Ala (from UniProt P00451 1709-2351) (domain or fragment)	59.4 nM	–
HAGMSTLFLV (also: biotinylated, position not given here) [biotinylated 2007-2016 peptide]	–	stoichiometry N (Factor X [5]): 1
HAGMSTLFLV [synthetic peptide corresponding to FVIII A3 residues 2007-2016]	–	Kd (Factor X [6]): 7700 nM; Ki (Factor X [7]): 152000 nM; percent inhibition of FVIII LC binding to FX at 800 μM peptide (Factor X [7]): 80%
